Sequences and labels used below:
B1: Paired immunoglobulin-like type 2 receptor alpha (Homo sapiens), Q9UKJ1 (parent)
chain: MGRPLLLPLLPLLLPPAFLQPSGSTGSGPSYLYGVTQPKHLSASMGGSVEIPFSFYYPWELATAPDVRISWRRGHFHRQSFYSTRPPSIHKDYVNRLFLNWTEGQKSGFLRISNLQKQDQSVYFCRVELDTRSSGRQQWQSIEGTKLSITQAVTTTTQRPSSMTTTWRLSSTTTTTGLRVTQGKRRSDSWHISLETAVGVAVAVTVLGIMILGLICLLRWRRRKGQQRTKATTPAREPFQNTEEPYENIRNEGQNTDPKLNPKDDGIVYASLALSSSTSPRAPPSHRPLKSPQNETLYSVLKA
B2: Paired immunoglobulin-like type 2 receptor alpha (Homo sapiens), Q9UKJ1 (parent)
chain: B1 chain
partner: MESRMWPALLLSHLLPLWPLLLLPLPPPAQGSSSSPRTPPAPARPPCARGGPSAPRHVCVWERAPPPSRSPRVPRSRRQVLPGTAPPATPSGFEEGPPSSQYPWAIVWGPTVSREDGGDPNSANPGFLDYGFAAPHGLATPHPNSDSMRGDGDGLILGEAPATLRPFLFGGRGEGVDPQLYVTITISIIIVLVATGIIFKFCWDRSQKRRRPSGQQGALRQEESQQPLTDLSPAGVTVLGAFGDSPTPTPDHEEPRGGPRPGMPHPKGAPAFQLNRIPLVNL
B3: Paired immunoglobulin-like type 2 receptor alpha (Homo sapiens), Q9UKJ1 (parent)
chain: B1 chain
partner: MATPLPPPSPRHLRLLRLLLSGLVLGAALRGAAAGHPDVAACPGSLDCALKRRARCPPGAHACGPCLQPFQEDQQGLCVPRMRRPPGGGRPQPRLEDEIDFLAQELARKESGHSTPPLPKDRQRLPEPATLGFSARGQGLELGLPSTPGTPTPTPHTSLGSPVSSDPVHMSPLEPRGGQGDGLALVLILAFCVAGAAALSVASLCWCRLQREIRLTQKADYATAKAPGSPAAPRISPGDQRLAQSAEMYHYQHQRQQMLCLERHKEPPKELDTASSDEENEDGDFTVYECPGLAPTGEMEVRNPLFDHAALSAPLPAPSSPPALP

One assay covers variants of B1. The note with it: with co4a_human C4A.
Regarding R78G, the “effect of a mutation on the interaction” value is “increasing interaction strength”.
Same read-out and setting: as for F76A, the entry is “disrupting interaction strength”; as for S80G, “increasing interaction strength”.

Variants of B2 are the subject of a further assay. Particulars: with pianp_human PIANP.
Turning to R72A, the “effect of a mutation on the interaction” value is listed as “disrupting interaction strength”.
In the case of S80G, the “effect of a mutation on the interaction” value is “increasing interaction strength”.
In the case of F76A, the “effect of a mutation on the interaction” value is “disrupting interaction strength”.
On the same count and under the same terms, the same measure for R78G: “increasing interaction strength”.

In a further assay the parent is B3. The note with it: with npdc1_human NPDC1, Q9NQX5.
Turning to R78G, the “effect of a mutation on the interaction” value is listed as “increasing interaction strength”.
In the case of F76A, the “effect of a mutation on the interaction” value is given as “disrupting interaction strength”.
The same measure, in the same setting: the same measure for Q140A: “disrupting interaction strength”; for S80G: “increasing interaction strength”; for R72A: “disrupting interaction strength”.
On the same count and under the same terms, as for S141A, the entry is “increasing interaction strength”.

The variants in a further assay derive from B3. The note with it: with npdc1_human NPDC1, Q9NQX5. The source holds these as a separate data set.
Consider Q140A, for which the “effect of a mutation on the interaction” value is on record as “decreasing interaction strength”.

The record behind these values is IntAct's records for PubMed 30388101.
